# B1: Ubiquitin-binding protein CUE5 (Saccharomyces cerevisiae), Q08412 (parent)
# chain: MEEKEGIKDSSLLEKSNVPESINEDISKTTDVDLNSDGKKDNDTSAKDGTPKVEEKVNKSSGIDEDEVVTPAEDAKEEEEEHPPLPARRKSEEEPSKENPILQELKDAFPNLEEKYIKAVIIASQGVLSPAFNALLFLSDPESGKDIELPTQPVRKNPEAPARRRQTQLEQDELLARQLDEQFNSSHSRRRNRDRATRSMHEQRRRRHNPNEREQHHEDSEEEDSWSQFVEKDLPELTDRAGRSLQDTANKVSNWISDAYRRNFASGNEQNDNQHGHQDQQEWEPEIVDLSQGGKNSRPQQPERRRFNSFGVQVGDDSLESHGITLHNEDGFEDDEDVPPQLPTRTKSGESTGKVVAETTYIDTPDTETKKKWQPLPPEPLDTTPTKVNAVSRNKKNPDEDEFLINSDDEM
# partner: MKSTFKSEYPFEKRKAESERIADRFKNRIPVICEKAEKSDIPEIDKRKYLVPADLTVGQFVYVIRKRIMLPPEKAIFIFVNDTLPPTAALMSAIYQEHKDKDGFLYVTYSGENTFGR
# B2: Ubiquitin-binding protein CUE5 (Saccharomyces cerevisiae), Q08412 (parent)
# chain: B1 chain
# Variants of: B1
# Details: with atg8_yeast ATG8, P38182
row,effect of a mutation on the interaction,Variant
1,decreasing interaction strength,W373A
2,disrupting interaction strength,W373A;Q374A;P375A;L376A
3,decreasing interaction strength,L376A

# Variants of: B2
# Details: with hd_human HTT
row,effect of a mutation on the interaction,Variant
1,disrupting interaction strength,L135A;L136A
